Common to all, as to experiment: cell-based or functional assay
Test [1] deals with mouse chemokine receptor CCR3 (NM_009914) on mouse prostate tumor cells (TRAMP-C1P3, RM1-BM) (mouse) (UniProt P51678).
Test [2] deals with human chemokine receptor CCR3 on human prostate tumor cells (PC-3, Du-145) (human) (UniProt P51677).
Test [3] concerns the target mouse chemokine CCL7 secreted in conditioned media of mouse adipocytes / adipose tissue (mouse) (UniProt Q03366).
Sequence of UniProt Q03366 (Q03366 24-97): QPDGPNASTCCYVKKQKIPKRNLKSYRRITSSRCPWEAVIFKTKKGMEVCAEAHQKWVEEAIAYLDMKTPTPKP

Sequence of UniProt P51678 (P51678 whole entry): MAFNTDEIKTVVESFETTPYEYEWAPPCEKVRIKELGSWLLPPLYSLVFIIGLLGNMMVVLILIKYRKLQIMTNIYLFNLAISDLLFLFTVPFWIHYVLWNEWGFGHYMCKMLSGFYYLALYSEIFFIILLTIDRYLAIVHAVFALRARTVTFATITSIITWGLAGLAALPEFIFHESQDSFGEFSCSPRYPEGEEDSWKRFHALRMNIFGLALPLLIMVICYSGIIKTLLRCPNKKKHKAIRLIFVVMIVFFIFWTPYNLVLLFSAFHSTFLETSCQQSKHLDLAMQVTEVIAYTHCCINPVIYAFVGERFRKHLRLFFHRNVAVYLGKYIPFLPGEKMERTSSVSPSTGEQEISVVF
Sequence of UniProt P51677 (P51677 whole entry): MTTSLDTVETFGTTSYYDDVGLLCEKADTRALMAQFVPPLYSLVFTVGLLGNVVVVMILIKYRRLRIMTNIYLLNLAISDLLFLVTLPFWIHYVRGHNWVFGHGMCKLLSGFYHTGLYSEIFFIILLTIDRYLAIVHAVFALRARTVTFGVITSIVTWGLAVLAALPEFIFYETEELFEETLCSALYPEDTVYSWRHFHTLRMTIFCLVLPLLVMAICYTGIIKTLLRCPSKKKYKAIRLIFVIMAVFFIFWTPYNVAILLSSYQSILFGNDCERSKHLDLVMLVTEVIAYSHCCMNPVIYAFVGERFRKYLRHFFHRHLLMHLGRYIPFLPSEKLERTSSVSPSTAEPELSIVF

In test [1], “human chemokine CCL7 (from UniProt P80098 24-99) (ligand)” yielded a chemotaxis of TRAMP-C1P3 cells (Boyden chamber), dose from which it is seen greater than 50 ng/mL and a migration of RM1-BM cells (Boyden chamber) of 100 ng/mL. This substance came in with a migration of PC-3 and Du-145 prostate cells (Boyden chamber), dose from which the effect is significant in test [2] greater than 50 ng/mL.

In test [3], “blocking antibody targeted against CCL7 (AF-456-NA, R&D System)” displayed an inhibition of migration of PC-3 and Du-145 cells against CM-Ad (Boyden chamber) of 50 % inhibition; an inhibition of migration of PC-3 cells against CM of HFD AT-mu-PG (obese mice) of 60 % inhibition; an inhibition of migration of PC-3 cells against CM of ND AT-mu-PG (normal-weight mice) of 25 % inhibition.
